Data on one substance can be found in patent US20240117061A1.

Experiment [1] has as its target recombinant human BCMA-his fusion protein (ACRO Biosystem, Cat. No. BCA-H522y) (human) (UniProt Q02223). The experiment is described as follows: ELISA, coated antigen. (ELISA stands for enzyme-linked immunosorbent assay.)
Experiment [2] shares this target. The experiment can be described thus: competitive ELISA, coated huBCMA-his, competitor 83A10-biotin.
Experiment [3] addresses human BCMA on cells (NCI-H929, U266B1, HEK293 huBCMA) (human) (UniProt Q02223). The experiment is described as follows: flow cytometry on NCI-H929 cells. For orientation: In flow cytometry, cells or beads pass a laser one at a time.
Experiment [4] deals with recombinant human BCMA-his fusion protein (ACRO Biosystem, Cat. No. BCA-H522y) (human) (UniProt Q02223). The experiment can be described thus: competitive ELISA, coated huBCMA-his, competitor 83A10-biotin. This is another data set of the same source.
Sequence of recombinant human BCMA-his fusion protein (ACRO Biosystem, Cat. No. BCA-H522y) (human) (Q02223 1-54): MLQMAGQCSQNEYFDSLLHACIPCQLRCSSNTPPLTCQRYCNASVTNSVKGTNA

Like-named read-outs stand apart in the source and are kept apart here.

Sequence of positive control antibody 83A10 (VH): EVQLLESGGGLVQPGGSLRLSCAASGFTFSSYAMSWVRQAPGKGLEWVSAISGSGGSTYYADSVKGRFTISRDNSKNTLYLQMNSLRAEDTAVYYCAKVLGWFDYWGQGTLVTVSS
Sequence of positive control antibody 83A10 (VL): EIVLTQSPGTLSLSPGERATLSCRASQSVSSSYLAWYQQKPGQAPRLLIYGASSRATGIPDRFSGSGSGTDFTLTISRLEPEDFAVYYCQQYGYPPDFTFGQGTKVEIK
Sequence of human BCMA on cells (NCI-H929, U266B1, HEK293 huBCMA) (human) (Q02223 whole entry, the tested form may be a part): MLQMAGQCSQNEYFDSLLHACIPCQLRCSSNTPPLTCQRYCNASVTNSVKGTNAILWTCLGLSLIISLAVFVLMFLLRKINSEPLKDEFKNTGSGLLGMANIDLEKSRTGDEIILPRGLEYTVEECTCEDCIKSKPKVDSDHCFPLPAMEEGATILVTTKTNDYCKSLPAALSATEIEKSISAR

In general, EC50 refers to the concentration needed to bring the measured effect to its halfway point. Broadly, the IC50 is the concentration that gives 50% inhibition. On to positive control antibody 83A10, for which the EC50 in experiment [1] came out at 0.0253 nM; in experiment [3], 8.69 nM. Moreover, the concentration for half-maximal inhibition (IC50) in experiment [2] turned out to be 15 µg/mL; in experiment [4] it was 9.8 µg/mL.
